Experimental data as given in PMC3342439 (Journal of the American Chemical Society, 2012).
Substitutions are numbered along the chain they refer to.

How the values were obtained:
Experiment in all cases: BLI
[1] = target: T1, Germicidin synthase (Gcs), wild type (Streptomyces coelicolor, UniProt Q9K464 1-389)
T1 sequence (looked up): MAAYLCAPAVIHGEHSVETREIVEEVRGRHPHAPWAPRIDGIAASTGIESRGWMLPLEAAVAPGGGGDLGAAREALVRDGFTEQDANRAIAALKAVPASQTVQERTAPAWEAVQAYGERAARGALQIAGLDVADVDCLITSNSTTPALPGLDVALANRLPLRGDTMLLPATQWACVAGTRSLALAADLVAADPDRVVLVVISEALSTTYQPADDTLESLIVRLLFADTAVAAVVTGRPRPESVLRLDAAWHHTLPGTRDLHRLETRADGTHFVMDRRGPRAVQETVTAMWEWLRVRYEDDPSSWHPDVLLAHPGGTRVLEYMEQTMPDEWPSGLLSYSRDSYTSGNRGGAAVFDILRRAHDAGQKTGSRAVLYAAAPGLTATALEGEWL

[2] = target: T2, Germicidin synthase (Gcs) R276A (Streptomyces coelicolor, UniProt Q9K464 1-389, R276A)
T2 sequence (looked up): T1 sequence (looked up) with R276A

[3] = target: T3, Germicidin synthase (Gcs) R277A (Streptomyces coelicolor, UniProt Q9K464 1-389, R277A)
T3 sequence (looked up): T1 sequence (looked up) with R277A

[4] = target: T4, Germicidin synthase (Gcs) R280A (Streptomyces coelicolor, UniProt Q9K464 1-389, R280A)
T4 sequence (looked up): T1 sequence (looked up) with R280A

[5] = target: T5, Germicidin synthase (Gcs) R317A (Streptomyces coelicolor, UniProt Q9K464 1-389, R317A)
T5 sequence (looked up): T1 sequence (looked up) with R317A

[6] = target: T6, Germicidin synthase (Gcs) R276/317A double mutant (Streptomyces coelicolor, UniProt Q9K464 1-389, R276/317A | R276/317A)
T6 sequence (looked up): T1 sequence (looked up) with R276A, R317A

Kd [1]: 225 nM | koff [1]: 0.00022 s⁻¹ | kon [1]: 1190 M⁻¹ s⁻¹ | Kd [2]: 185 nM | koff [2]: 0.000253 s⁻¹ | kon [2]: 628 M⁻¹ s⁻¹ | Kd [3]: 403 nM | koff [3]: 0.000128 s⁻¹ | kon [3]: 695 M⁻¹ s⁻¹ | Kd [4]: 184 nM | koff [4]: 0.000122 s⁻¹ | kon [4]: 769 M⁻¹ s⁻¹ | Kd [5]: 161 nM | koff [5]: 0.000407 s⁻¹ | kon [5]: 1810 M⁻¹ s⁻¹ | Kd [6]: 192 nM | koff [6]: 0.00017 s⁻¹ | kon [6]: 892 M⁻¹ s⁻¹
B1: Acyl carrier protein AcpP (Sco2389), biotinylated (natural protein, Streptomyces coelicolor, UniProt P72393 1-82, looked up)
chain: MAATQEEIVAGLAEIVNEIAGIPVEDVKLDKSFTDDLDVDSLSMVEVVVAAEERFDVKIPDDDVKNLKTVGDATKYILDHQA
modifications: biotin (EZ-Link NHS-LC-LC-biotin, 5:1 molar ratio of biotin to protein)
